Results as given in patent US20250346685A1 (published 2025).

Assays:
[1] = biological target: T1, human CD3 on T cells (Jurkat cells; human peripheral blood CD4+ and CD8+ T-cells) (human, UniProt P07766 23-207); assay: flow cytometry on peripheral blood CD4+ T-cells
T1 construct: whole, on cells; also called CD4T; CD4 + T
Protocol: (§1) Fresh human or cynomolgus monkey peripheral blood was taken and PBMC was isolated by Ficoll. Paque Plus (GE, 17-1440-03). PBMC was adjusted to 5×10⁵ cells/mL with 4% calf serum (Hyclone, SH30626.06), 100 μL/well was added to a 96-well U-plate, the supernatant was centrifuged off and 100 μL of gradient diluted antibody (with starting concentration of 1800 nM, 3-fold dilution, 10 gradients) was added to each well and incubated for 60 min at 4° C. 50 μL/well Alexa Fluro647 labeled goat anti-human IgG Fc (1:300 dilution) was added to secondary antibody, with ice bath for 20 min. 50 μL/well PI was added after washing once and incubated for 5 min, and flow cytometer (BD Celesta) is used to make detection.

[2] = biological target: T1, human CD3 on T cells (Jurkat cells; …); assay: flow cytometry on peripheral blood CD8+ T-cells
Protocol: as §1

[3] = biological target: T2, human GPC3 on cells (CHO-human GPC3 stably transfected cells; HepG2 tumor cells) (human, UniProt P51654 25-554); assay: flow cytometry on CHO-human GPC3 stably transfected cells
T2 construct: whole, on cells; also called Human GPC3-CHO
Protocol: (§2) CHO-human GPC3, CHO-Cynomolgus monkey GPC3 stably transfected cells or human hepatocellular carcinoma HepG2 tumor cells in logarithmic growth phase were taken. After blocking, the cells were adjusted to 5×10⁵ cells/ml, and 100 μl/well cell suspension was added to 96-well U-shaped plate and centrifuged at 300 g for 5 min. The supernatant was discarded, 100 μL of gradient diluted antibody (with a starting concentration of 1800 nM, 3-fold dilution, 10 gradients) was added to each well, and incubated at 4° C. for 60 min. 50 μL/well Alexa Fluro647 labeled goat anti-human IgG Fc (1:300 dilution) were added to the secondary antibody, incubated on ice for 20 min, added with 50 μL/well PI solution (1:300) after washing once, incubated for 5 min, and flow cytometer was used to make detection.

[4] = biological target: T2, human GPC3 on cells (CHO-human GPC3 …); assay: flow cytometry on HepG2 cells
Protocol: as §2

[5] = biological target: T1, human CD3 on T cells (Jurkat cells; …); assay: flow cytometry on Jurkat cells
Protocol: The cells were adjusted to 5×10^5 cells/mL with 4% calf serum, 100 μL/well was added to 96-well U-plate, 300 g was centrifuged to removed the supernatant, 100 μL/well of gradient diluted antibody (initial concentration: 1800 nM, 3-fold dilution, 10 gradients) was added and incubated at 4° C. for 60 min. 50 μL/well Alexa Fluro647-labeled goat anti-human IgG Fc (1:300 dilution) was added to the secondary antibody and incubated on ice for 20 min. 50 μL/well PI was added after washing once, incubated for 5 min, and detected with flow cytometer (BD C6).

[6] = biological target: T3, cynomolgus monkey GPC3 on CHO stably transfected cells (cynomolgus monkey, UniProt A0A2K5VK50 24-553); assay: flow cytometry on CHO-cynomolgus monkey GPC3 stably transfected cells
T3 construct: whole, on cells; also called Cynomolgus monkey GPC3-CHO; CHO-Cynomolgus monkey GPC3
Protocol: as §2

[7] = biological target: T1, human CD3 on T cells (Jurkat cells; …); assay: flow cytometry on Jurkat cells; remark: listed apart in the source
Protocol: Jurkat cells in logarithmic growth phase were blocked with 3% BSA for 30 min, added to 96-well U-plate at 5×10^4 cells per well, centrifuged to discard the supernatant, and added with 50 μL of gradient diluted antibody (antibody concentration:from 30 μg/mL, with 3-fold dilution for 5 gradients) per well, and incubated at 4° C. for 1 hour. After washing off the primary antibody, a 1:300 dilution of Alexa Fluro647 labeled goat anti-human IgG Fc (Jackson ImmunoResearch, 109-606-170) was added to the secondary antibody, incubated for 45 min at 4° C., and, after washing, resuspended in 50 μL of PBS per well for FACS (iQue, intellicyt) detection.

[8] = biological target: T4, human CD3εγ-Fc heterodimer (human); assay: ELISA, coated human CD3εγ recombinant protein
T4 construct: also called human CD3εγ recombinant protein; human CD3εγ protein
T4 chain 1: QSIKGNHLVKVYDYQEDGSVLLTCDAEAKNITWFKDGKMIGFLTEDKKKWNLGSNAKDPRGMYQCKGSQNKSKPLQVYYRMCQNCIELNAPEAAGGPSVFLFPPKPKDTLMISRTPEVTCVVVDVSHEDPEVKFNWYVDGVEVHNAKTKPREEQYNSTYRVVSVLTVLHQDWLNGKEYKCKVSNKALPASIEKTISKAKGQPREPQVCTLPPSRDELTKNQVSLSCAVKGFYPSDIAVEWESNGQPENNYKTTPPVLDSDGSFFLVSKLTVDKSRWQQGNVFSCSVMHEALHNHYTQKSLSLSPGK
T4 chain 2: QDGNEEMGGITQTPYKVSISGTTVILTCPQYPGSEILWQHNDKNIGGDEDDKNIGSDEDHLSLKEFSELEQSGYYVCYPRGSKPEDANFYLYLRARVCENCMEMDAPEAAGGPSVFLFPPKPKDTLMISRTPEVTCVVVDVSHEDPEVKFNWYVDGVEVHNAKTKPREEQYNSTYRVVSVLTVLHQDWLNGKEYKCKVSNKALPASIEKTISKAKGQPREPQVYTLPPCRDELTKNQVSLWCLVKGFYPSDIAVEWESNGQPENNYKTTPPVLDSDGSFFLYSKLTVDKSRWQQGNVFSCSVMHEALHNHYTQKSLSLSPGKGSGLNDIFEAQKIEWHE
Protocol: (§3) Human CD3εγ recombinant protein was coated overnight at 4° C. After blocking with 2% skim milk, different dilutions of CD3 antibody were added to each well and incubated for 1 hour. After the secondary antibody was developed by adding HPR-labeled goat anti-human IgG Fc and TMB solution, the reaction was stopped with concentrated sulfuric acid and the absorbance was read at 450 nm.

[9] = biological target: T5, Cynomolgus monkey CD3εγ-Fc heterodimer (cynomolgus monkey); assay: ELISA, coated cynomolgus monkey CD3εγ protein
T5 construct: also called cynomolgus monkey CD3εγ protein
T5 chain 1: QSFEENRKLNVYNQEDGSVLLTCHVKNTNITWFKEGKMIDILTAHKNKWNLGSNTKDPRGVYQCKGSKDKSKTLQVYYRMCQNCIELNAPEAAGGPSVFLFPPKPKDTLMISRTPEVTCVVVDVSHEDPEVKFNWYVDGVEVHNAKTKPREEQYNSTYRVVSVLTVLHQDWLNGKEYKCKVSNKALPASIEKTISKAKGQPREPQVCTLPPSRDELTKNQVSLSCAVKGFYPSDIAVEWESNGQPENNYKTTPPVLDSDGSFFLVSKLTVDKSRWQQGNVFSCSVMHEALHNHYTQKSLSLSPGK
T5 chain 2: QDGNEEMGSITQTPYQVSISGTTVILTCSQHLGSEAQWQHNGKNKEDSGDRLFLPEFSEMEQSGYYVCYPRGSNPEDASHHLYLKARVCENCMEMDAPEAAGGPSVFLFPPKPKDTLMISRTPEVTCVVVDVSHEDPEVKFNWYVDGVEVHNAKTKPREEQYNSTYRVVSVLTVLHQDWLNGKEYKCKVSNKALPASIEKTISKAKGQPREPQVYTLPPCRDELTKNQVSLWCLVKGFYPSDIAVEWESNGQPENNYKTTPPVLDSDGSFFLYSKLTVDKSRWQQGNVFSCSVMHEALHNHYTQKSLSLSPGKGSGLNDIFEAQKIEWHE
Protocol: as §3, with “CD3εγ” for “CD3εγ recombinant”, “protein and cynomolgus monkey CD3εγ protein were” for “protein was”, “coated separately” for “coated”, “sulfuric acid,” for “sulfuric acid”

B1: GPC3 × CD3 κλ003 (bispecific antibody, human IgG4 S228P, kappa, lambda)
light 1: DVVMTQSPLSLPVTPGEPASISCRSSQSIVHSNGNTYLEWYLKKPGQSPQLLIYKVSNRFSGVPDRFSGSGSGTDFTLKISRVEAEDVGVYFCLQVTHVPLTFGQGTKLEIKRTVAAPSVFIFPPSDKKLKSGTASVVCLLNNFYPREAKVQWKVDNALQSGNSQESVTEQDSKDSTYSLSSTLTLSKADYEKHKVYACEVTHQGLSSPVTKSFNRGEC
heavy 1: QVQLVQSGAEVKKPGSSVKVSCKASGYTFADYEIHWVREAPGQGLEWMGAIHPGSGGTAYAQKFQGRVTLTADESSTTAYMELSSLRSEDTAVYYCTRYYSFAYWGQGTLVTVSSASTKGPSVFPLAPCSRSTSESTAALGCLVEDYFPEPVTVSWNSGALTSGVHTFPAVLQSSGLYSLSSVVTVPSSSLGTKTYTCNVDHKPSNTKVDERVESKYGPPCPPCPAPEFEGGPSVFLFPPKPKDTLMISRTPEVTCVVVDVSQEDPEVQFNWYVDGVEVHNAKTKPREEQFNSTYRVVSVLTVLHQDWLNGKEYKCKVSNKGLASSIEKTISKAKGQPREPQVCTLPPSQEEMTKNQVSLSCAVKGFYPSDIAVEWESNGQPENNYKTTPPVLDSDGSFFLVSKLTVDKSRWQEGNVFSCSVMHEALHNHYTQKSLSLSLGK
light 2: QAVVTQEPSLTVSPGGTVTLTCRSSTGAVTTSNYANWVQEKPGQAPRGLIGGTNKRAPWTPARFSGSLLGGKAALTITGAQAEDEAEYYCVLWYSNLWVFGGGTKLTVLGQPKAAPSVTLFPPSSEELQANKATLVCLISDFYPGAVTVAWKADSSPVKAGVETTTPSKQSNNKYAASSYLSLTPEQWKSHRSYSCQVTHEGSTVEKTVAPTECS
heavy 2: EVQLVESGGGLVQPGGSLRLSCAASGFTFNTYAMNWVRKAPGKGLEWVGRIRSKYNNYATYYADSVKDRFTISRDDSKNSLYLQMNSLKTEDTAVYYCVRHGNFGNSYVSWFAYWGQGTLVTVSSASTKGPSVFPLAPCSRSTSESTAALGCLVKDYFPEPVTVSWNSGALTSGVHTFPAVLQSSGLYSLSSVVTVPSSSLGTKTYTCNVDHKPSNTKVDKRVESKYGPPCPPCPAPEFEGGPSVFLFPPKPKDTLMISRTPEVTCVVVDVSQEDPEVQFNWYVDGVEVHNAKTKPREEQFNSTYRVVSVLTVLHQDWLNGKEYKCKVSNKGLASSIEKTISKAKGQPREPQVYTLPPCQEEMTKNQVSLWCLVKGFYPSDIAVEWESNGQPENNYKTTPPVLDSDGSFFLYSKLTVDKSRWQEGNVFSCSVMHEALHNHYTQKSLSLSLGK
notes: Human IgG4 knob-into-hole Fc with Ser228Pro, Leu235Glu, Pro329Ala; also called GPC3×CD3 κλ bispecific antibody
[1]
  EC50: 56 nM
[2]
  EC50: 69 nM
[3]
  EC50: 2.9 nM
[4]
  EC50: 2.5 nM
[5]
  EC50: 26 nM
[6]
  EC50: 3 nM

B2: aCD3-hVH9/VL2 (antibody, human IgG4, V domains shown)
VH: EVQLVESGGGLVQPGGSLRLSCAASGFTFNTYAMNWVRKAPGKGLEWVGRIRSKYNNYATYYADSVKDRFTISRDDSKNSLYLQMNSLKTEDTAVYYCVRHGNFGNSYVSWFAYWGQGTLVTVSS
VL: QAVVTQEPSLTVSPGGTVTLTCRSSTGAVTTSNYANWVQEKPGQAPRGLIGGTNKRAPWTPARFSGSLLGGKAALTLSGAQPEDEAEYYCALWYSNLWVFGGGTKLTVL
notes: also called humanized anti-CD3 antibody hVH9/VL2
[7]
  affinity (FACS): 25 nM
[8]
  affinity (ELISA): 0.44 nM
[9]
  binding result: binds

B3: aCD3-hVH9/VL5 (antibody, human IgG4, V domains shown)
VH: EVQLVESGGGLVQPGGSLRLSCAASGFTFNTYAMNWVRKAPGKGLEWVGRIRSKYNNYATYYADSVKDRFTISRDDSKNSLYLQMNSLKTEDTAVYYCVRHGNFGNSYVSWFAYWGQGTLVTVSS
VL: QAVVTQEPSLTVSPGGTVTLTCRSSTGAVTTSNYANWVQEKPGQAPRGLIGGTNKRAPWTPARFSGSLLGGKAALTITGAQAEDEAEYYCVLWYSNLWVFGGGTKLTVL
notes: also called humanized anti-CD3 antibody hVH9/VL5
[7]
  affinity (FACS): 20 nM
[8]
  affinity (ELISA): 0.42 nM
[9]
  binding result: binds
